Test results: paper PMC7877763, “Aberrant binding of mutant HSP47 affects posttranslational modification of type I collagen and leads to osteogenesis imperfecta” (PLoS Genetics, 2021)
Numbering of substitutions follows the chain as printed. In names and notes the source's numbering stands.

B1: recombinant wild-type canine HSP47 (natural protein, UniProt C7C419 36-418, looked up)
chain: LSPKAATLAERSAGLAFSLYQAMAKDQAVENILLSPVVVASSLGLVSLGGKATTASQAKAVLSAEQLRDEEVHAGLGELLRSLSNSTARNVTWKLGSRLYGPSSVSFAEDFVRSSKQHYNCEHSKINFRDKRSALQSINEWAAQTTDGKLPEVTKDVERTDGALLVNAMFFKPHWDEKFHHKMVDNRGFMVTRSYTVGVTMMHRTGLYNYYDDEKEKLQIVEMPLAHKLSSLIILMPHHVEPLERLEKLLTKEQLKIWMGKMQKKAVAISLPKGVVEVTHDLQKHLAGLGLTEAIDKNKADLSRMSGKKDLYLASVFHATAFEWDTEGNPFDQDIYGREELRSPKLFYADHPFIFLVRDTQSGSLLFIGRLVRPKGDKMRDEL
notes: HSP47 (serpin H1), canine, residues 36-418 printed as 36LSP; RDEL418, in a pJExpress411 vector; The methods describe a strep-tagged construct; the ELISA methods speak of His-tagged HSP47 proteins detected by an anti-His antibody; also called wild-type HSP47; WT HSP47; source: E. coli BL21 (DE3), purified (Streptactin column, Superdex 200 SEC)
B2: recombinant canine HSP47-R222S (natural protein, UniProt C7C419 36-418, looked up)
chain: B1 chain with R187S
notes: HSP47 (serpin H1), canine, residues 36-418 (36LSP... RDEL418) with R222S introduced by Quikchange mutagenesis; The substitution is the one found in the human patient, placed in the canine protein; Strep tag by the purification methods, His tag by the ELISA methods; also called R222S HSP47; source: E. coli BL21 (DE3), purified as wild-type HSP47 (Streptactin column, Superdex 200 SEC)

Experiments:
[1] = target: T1, type I collagen from rat tail (rat, UniProt P02454 152-1207; P02466 86-1125); assay: ELISA; ELISA-like binding assay; type I collagen from rat tail coated at 10 ug/mL on MaxiSorp plates (coating of GPR-foldon not described); His-tagged HSP47 at 1.2 to 5,000 nM in solution; detected with HRP-coupled anti-His antibody; four-parameter logistic fit; details: both partners purified
T1 construct: collagen alpha-1(I) chain, rat; collagen alpha-2(I) chain, rat; Chain composition as the introduction tells of type I collagen in general; also called full length type I collagen; source: bought: BD Bioscience; copies: 2 + 1

[2] = target: T2, full length pepsinized type I collagen from mouse tail tendon (mouse, UniProt P11087 152-1207; Q01149 86-1125); assay: SPR; BIAcore X; type I collagen from mouse tail tendon immobilised on a CM5 chip by amide coupling (about 6,000 RU); HSP47 flowed over; 20°C; HBS-P (10 mM Hepes pH 7.4, 150 mM NaCl, 0.005% Surfactant P20); 10 ul/min; Langmuir binding model; details: both partners purified
T2 construct: collagen alpha-1(I) chain, mouse; collagen alpha-2(I) chain, mouse; Chain composition (two alpha1(I), one alpha2(I)) as the introduction tells of type I collagen in general; source: purified from mouse tail tendon (pepsinized); copies: 2 + 1
T2 sequence (P11087 152-1207, chain 1 of 2): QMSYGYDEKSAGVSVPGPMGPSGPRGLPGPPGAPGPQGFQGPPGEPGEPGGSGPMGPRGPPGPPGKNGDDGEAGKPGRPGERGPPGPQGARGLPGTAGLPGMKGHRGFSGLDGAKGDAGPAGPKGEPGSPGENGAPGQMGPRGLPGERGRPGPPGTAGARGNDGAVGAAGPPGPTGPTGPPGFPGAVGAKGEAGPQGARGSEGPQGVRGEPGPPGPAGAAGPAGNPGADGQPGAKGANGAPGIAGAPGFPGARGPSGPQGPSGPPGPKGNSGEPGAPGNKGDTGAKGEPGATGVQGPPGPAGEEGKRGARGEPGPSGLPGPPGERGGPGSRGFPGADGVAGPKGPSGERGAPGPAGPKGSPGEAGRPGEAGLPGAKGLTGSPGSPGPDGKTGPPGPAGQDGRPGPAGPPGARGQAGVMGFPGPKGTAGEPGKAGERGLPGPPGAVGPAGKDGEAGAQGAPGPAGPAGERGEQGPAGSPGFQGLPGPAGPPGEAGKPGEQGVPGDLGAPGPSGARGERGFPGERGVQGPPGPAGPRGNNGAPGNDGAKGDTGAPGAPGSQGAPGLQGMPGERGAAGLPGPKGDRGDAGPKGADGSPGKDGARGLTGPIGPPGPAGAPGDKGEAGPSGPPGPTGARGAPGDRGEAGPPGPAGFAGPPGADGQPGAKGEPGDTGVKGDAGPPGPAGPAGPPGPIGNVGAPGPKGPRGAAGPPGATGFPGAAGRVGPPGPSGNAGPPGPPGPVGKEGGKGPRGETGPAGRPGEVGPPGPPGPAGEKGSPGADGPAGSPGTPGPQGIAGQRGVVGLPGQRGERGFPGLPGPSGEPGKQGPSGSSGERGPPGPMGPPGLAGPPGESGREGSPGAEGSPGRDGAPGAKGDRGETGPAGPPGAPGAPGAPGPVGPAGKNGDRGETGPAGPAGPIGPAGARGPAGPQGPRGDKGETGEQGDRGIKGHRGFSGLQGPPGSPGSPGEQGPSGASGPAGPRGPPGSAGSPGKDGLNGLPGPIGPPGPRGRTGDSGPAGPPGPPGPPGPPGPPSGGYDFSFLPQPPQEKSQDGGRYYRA
T2 sequence (Q01149 86-1125, chain 2 of 2): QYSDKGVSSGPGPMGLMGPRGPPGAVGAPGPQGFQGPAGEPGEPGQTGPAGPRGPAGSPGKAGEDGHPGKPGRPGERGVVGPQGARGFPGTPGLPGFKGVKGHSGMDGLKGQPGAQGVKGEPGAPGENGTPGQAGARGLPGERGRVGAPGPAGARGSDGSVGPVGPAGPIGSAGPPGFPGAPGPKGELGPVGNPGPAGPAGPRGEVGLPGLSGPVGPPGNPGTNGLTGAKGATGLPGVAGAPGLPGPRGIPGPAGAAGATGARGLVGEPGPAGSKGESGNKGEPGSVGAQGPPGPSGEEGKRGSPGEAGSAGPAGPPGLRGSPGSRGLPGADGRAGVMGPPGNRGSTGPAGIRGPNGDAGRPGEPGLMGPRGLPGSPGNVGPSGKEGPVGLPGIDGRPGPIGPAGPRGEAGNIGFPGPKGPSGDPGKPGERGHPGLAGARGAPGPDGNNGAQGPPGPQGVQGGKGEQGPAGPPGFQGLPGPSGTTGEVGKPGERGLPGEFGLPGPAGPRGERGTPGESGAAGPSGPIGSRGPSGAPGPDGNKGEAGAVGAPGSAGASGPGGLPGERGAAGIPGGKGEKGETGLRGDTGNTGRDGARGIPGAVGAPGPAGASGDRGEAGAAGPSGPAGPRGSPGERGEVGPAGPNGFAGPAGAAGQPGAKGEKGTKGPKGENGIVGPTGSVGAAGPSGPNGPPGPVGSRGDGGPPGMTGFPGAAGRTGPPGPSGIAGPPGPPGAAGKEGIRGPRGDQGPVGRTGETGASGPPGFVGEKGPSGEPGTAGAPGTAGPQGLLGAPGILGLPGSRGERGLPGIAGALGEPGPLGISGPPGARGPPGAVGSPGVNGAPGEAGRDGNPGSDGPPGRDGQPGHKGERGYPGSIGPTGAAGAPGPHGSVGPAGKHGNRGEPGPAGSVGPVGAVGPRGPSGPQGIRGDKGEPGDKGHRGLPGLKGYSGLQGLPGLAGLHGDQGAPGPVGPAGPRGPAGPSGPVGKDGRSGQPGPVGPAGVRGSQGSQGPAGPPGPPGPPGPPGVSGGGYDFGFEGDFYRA

T1 sequence (P02454 152-1207, chain 1 of 2): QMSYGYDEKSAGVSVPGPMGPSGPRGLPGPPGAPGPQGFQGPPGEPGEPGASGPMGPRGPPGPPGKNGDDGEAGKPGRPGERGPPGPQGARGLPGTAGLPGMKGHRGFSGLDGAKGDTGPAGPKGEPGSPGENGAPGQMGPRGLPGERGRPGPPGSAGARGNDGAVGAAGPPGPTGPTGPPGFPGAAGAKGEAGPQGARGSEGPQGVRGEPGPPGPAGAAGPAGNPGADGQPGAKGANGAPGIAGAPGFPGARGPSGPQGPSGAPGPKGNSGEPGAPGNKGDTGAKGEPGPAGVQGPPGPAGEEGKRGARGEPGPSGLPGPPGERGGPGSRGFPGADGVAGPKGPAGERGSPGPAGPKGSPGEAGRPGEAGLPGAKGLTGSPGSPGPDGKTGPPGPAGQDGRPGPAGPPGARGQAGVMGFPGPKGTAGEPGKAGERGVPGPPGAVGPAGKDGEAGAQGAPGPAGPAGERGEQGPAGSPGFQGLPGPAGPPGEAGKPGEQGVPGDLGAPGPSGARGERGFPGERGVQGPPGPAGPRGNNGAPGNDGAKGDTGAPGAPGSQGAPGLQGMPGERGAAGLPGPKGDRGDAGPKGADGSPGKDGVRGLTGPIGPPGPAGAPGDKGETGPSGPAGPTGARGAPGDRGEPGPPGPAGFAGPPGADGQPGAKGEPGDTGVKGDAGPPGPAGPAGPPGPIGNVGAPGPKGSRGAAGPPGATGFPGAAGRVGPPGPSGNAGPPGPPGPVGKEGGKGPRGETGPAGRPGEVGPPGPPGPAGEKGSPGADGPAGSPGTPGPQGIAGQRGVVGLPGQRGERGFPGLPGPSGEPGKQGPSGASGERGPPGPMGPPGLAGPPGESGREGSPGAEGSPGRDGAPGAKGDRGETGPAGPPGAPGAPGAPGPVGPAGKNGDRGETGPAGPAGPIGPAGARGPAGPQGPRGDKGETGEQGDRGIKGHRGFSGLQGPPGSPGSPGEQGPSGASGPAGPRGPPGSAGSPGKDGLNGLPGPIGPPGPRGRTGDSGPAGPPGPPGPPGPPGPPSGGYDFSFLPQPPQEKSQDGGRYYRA
T1 sequence (P02466 86-1125, chain 2 of 2): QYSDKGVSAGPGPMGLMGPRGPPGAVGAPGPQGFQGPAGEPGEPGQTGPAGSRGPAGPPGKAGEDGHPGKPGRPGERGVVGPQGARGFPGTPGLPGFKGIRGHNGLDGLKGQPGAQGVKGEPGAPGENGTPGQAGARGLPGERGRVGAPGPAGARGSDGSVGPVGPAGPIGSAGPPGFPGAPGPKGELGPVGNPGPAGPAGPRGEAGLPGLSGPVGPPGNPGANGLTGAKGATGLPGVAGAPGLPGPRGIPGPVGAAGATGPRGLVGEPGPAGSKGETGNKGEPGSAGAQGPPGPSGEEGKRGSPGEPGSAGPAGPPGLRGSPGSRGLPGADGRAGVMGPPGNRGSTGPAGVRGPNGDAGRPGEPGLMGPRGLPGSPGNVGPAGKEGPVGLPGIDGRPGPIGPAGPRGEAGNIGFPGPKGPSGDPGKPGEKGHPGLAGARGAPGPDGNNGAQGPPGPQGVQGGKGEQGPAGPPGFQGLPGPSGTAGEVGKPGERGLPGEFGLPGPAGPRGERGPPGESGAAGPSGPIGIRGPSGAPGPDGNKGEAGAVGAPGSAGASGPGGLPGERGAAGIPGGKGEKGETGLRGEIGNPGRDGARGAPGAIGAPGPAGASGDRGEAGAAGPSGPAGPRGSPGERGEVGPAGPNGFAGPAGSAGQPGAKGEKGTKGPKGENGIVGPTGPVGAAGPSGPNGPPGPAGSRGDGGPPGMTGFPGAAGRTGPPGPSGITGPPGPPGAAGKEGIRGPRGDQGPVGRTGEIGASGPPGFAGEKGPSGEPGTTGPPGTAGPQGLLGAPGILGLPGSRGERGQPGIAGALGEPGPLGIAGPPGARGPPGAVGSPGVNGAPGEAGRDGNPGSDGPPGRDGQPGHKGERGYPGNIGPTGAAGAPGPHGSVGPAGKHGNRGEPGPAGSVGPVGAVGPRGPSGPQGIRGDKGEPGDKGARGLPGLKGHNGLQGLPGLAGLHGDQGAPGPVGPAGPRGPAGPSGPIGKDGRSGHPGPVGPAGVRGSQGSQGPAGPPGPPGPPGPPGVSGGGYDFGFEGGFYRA

| Binder | Kd [1] [nM] | Kd [2] [nM] |
| --- | --- | --- |
| B1 | 139 | 60 |
| B2 | ~3600 | 640 |
